According to patent US9732101B2, “Bioreversible boronates for delivery of molecules into cells” (WISCONSIN ALUMNI RESEARCH FOUNDATION, priority 2012, dated 2017):

Tests used:
Format in all cases: cell-based, Chinese hamster
Pro-5 cells [1] = test: Cellular internalization by flow cytometry
Protocol: (§1) Cell lines were obtained from American Type Culture Collection (Manassas, Va.) and were maintained according to the recommended procedures. Cells were grown in a cell culture incubator at 37° C. under CO2 (5% v/v) in flat-bottomed culture flasks. Cell medium was supplemented with GIBCO fetal bovine serum (FBS) (10% v/v), penicillin (100 units/mL), and streptomycin (100 μg/mL) in the appropriate cellular medium as follows: Pro-5, MEM α+ribonucleosides+deoxyribonucleosides; Lec-2, MEM α-ribonucleosides-deoxyribonucleosides; and K562, RPMI 1640. Cells were counted by hemocytometry for dispensing into 12-well plates (Corning Costar, Lowell, Mass.) or 8-well chambered coverglass slides (Nuc Lab-Tek II, Thermo Scientific).
(§2) BODIPY-FL was excited with a 488 nm solid-state laser and the emission was collected with a 530/30 bandpass filter. To collect the most reproducible data, for every flow cytometry experiment, the sensitivity (voltage) of the photomultiplier tube was set for all data collections using mid-range Rainbow beads from Spherotech (Lake Forest, Ill.) to a predetermined fluorescence target value. At least 10,000 cellular events were acquired for each sample. Data were analyzed using FlowJo 8.1.3 (Treestar, Ashland, Oreg.).
(§3) The day prior to an experiment, Pro-5 and Lec-2 cells were plated in 12-well plates at 1×10^5 cells/well. The day of the experiment, the appropriate amount of fructose was dissolved into the cellular medium to obtain a final fructose concentration of 250 mM, and the medium was passed through a 0.45-μm syringe filter from Whatman (Piscataway, N.J.). Non-fructose-containing medium was filtered likewise. Stock solutions of fluorescently labeled ribonucleases were diluted into the cell culture to a final concentration of 5 μM. Ribonucleases were incubated with cells for 4 h. Cells were then rinsed with PBS (2×400 μL), removed from the cell culture plate with trypsin (400 μL, 0.05% (1×) with EDTA; Invitrogen, Carlsbad, Calif.), placed in flow cytometry tubes containing 80 μL of FBS, and incubated on ice until analyzed by flow cytometry. Final fluorescence values were divided by the percent fluorophore labeling of the ribonuclease to determine the corrected value of fluorescence. Experiments were run twice in triplicate unless otherwise indicated. Data is illustrated in FIG. 4A and FIG. 4C.

Lec-2 cells = test: Cellular internalization by flow cytometry
Protocol: as §1, §2, §3

Pro-5 cells [2] = test: Confocal microscopy of live cells; conditions: 5 μM, 4 h
Protocol: as §1
Pro-5 cells were plated on Nunc Lab-tek II 8-well chambered coverglass 24 h before use and grown to 80% confluency. Cells were incubated with 5 μM BODIPY FL-labeled ribonucleases for 4 h. Cell nuclei were stained with Hoechst 33342 (Invitrogen, 2 μg/mL) for the final 15 min of incubation. Cells were then washed twice with PBS, suspended in PBS, and examined using a Nikon Eclipse C1 laser scanning confocal microscope. Results are illustrated in FIG. 4B.

[3] = 5 μM, 4 h, relative to unmodified RNase A

B1: benzoboroxole-boronated RNase A: RNase A with 5-amino-2-hydroxymethylphenylboronic acid conjugated to protein carboxyl groups by carbodiimide condensation (conjugate, UniProt P61823 27-150, looked up)
Ribonuclease pancreatic: KETAAAKFERQHMDSSTSAASSSNYCNQMMKSRNLTKDRCKPVNTFVHESLADVQAVCSQKNVACKNGQTNCYQSYSTMSITDCRETGSSKYPNCAYKTTQANKHIIVACEGNPYVPVHFDASV
modifications: benzoboroxole conjugated to carboxyl groups
notes: RNase A with 5-amino-2-hydroxymethylphenylboronic acid conjugated to protein carboxyl groups by carbodiimide condensation
increase in cellular uptake (Pro-5 cells [1]; [3]): 4- to 5 fold
effect of fructose on enhancement of cellular uptake (Pro-5 cells [1]; fructose 0.25 M): eliminated
increase in cellular uptake (Lec-2 cells; [3]): 4- to 5 fold
effect of fructose on enhancement of cellular uptake (Lec-2 cells; fructose 0.25 M): eliminated
intracellular staining pattern (Pro-5 cells [2]): punctate staining
